One block for each binder: values may come before it.
Experiments:
[1] = molecular target: the molecule itself; assay: fluorescent foci in HEK293 cells co-expressing PB1-mAG1-FKBP12, 500 nM rapamycin; homodimer formation of CD80
Procedure: (§1) (A) CD80-FRB and PB1-mAG1-FKBP12; and [0651] (B) CD2-FRB and PB1-mAG1-FKBP12.
(§2) Specifically, first, HEK293 cells were cultured in a culture solution (DMEM high glucose, 10% FBS, 1% penicillin-streptomycin). Then, on the day before the transfection, the cells were seeded onto an 8-well chamber, and cultured in 100 μL of the culture solution per well. Subsequently, a DNA solution prepared by mixing 200 ng of each of the plasmids was diluted with 10 μL of OptiMEM. Thereafter, 0.8 μL of Fugene HD was added thereto and then stirred. The resultant was further mixed with 90 μl of the culture solution. After that, the obtained mixture solution was added to the cultured cells and cultured for 20 hours.

[2] = molecular target: the molecule itself; assay: fluorescent foci in HEK293 cells co-expressing PB1-mAG1-FKBP12, 500 nM rapamycin; negative control for homodimer formation
Procedure: as §1, §2

[3] = molecular target: T1, mAG1-Cyclin D1 (UniProt P24385 1-295); assay: fluorescent foci in HEK293 cells expressing mAG1-Cyclin D1, p21-PB1 and CDK4-PB1
T1 construct: whole, on cells; also called hmAG1-Cyclin D1
T1 sequence (P24385 other isoform, or with tags, fused parts or gaps): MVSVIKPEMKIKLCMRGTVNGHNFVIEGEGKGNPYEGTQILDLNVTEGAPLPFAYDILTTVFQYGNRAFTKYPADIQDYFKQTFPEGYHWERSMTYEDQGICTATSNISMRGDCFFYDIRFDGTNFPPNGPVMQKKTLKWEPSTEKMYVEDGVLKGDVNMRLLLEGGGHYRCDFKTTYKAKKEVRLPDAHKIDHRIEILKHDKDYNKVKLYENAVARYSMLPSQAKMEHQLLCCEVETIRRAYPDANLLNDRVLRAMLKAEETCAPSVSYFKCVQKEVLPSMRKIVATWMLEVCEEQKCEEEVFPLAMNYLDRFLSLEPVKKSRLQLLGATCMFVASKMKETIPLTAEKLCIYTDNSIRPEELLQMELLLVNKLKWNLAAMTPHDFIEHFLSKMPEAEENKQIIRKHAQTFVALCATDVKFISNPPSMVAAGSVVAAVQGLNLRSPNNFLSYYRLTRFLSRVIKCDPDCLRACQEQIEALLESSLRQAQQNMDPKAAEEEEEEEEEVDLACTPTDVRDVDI

B1: CD80-FRB (other, not shown: small tags and cut ends)
chain: VIHVTKEVKEVATLSCGHNVSVEELAQTRIYWQKEKKMVLTMMSGDMNIWPEYKNRTIFDITNNLSIVILALRPSDEGTYECVVLKYEKDAFKREHLAEVTLSVKADFPTPSISDFEIPTSNIRRIICSTSGGFPEPHLSWLENGEELNAINTTVSQDPETELYAVSSKLDFNMTTNHSFMCLIKYGHLRVNQTFNWNTTKQEHFPDNLLPSWAITLISVNGIFVICCLTYCFAPRCRERRRNERLRRESVRPVEMWHEGLEEASRLYFGERNVKGMFEVLEPLHAMMERGPQTLKETSFNQAYGRDLMEAQEWCRKYMKSGNVKDLTQAWDLYYHVFRRISKQ
notes: whole, on cells; In the assay it was joined by rapamycin to PB1-mAG1-FKBP12
- binding result [1]: binds

B2: CD2-FRB (other, not shown: small tags and cut ends)
chain: KEITNALETWGALGQDINLDIPSFQMSDDIDDIKWEKTSDKKKIAQFRKEKETFKEKDTYKLFKNGTLKIKHLKTDDQDIYKVSIYDTKGKNVLEKIFDLKIQERVSKPKISWTCINTTLTCEVMNGTDPELNLYQDGKHLKLSQRVITHKWTTSLSAKFKCTAGNKVSKESSVEPVSCPEKGLDIYLIIGICGGGSLLMVFVALLVFYITKRKKQRSRRNDEELETRAHRVATEERGRKPHQIPASTPQNPATSQHPPPPPGHRSQAPSHRPPPPGHRVQHQPQKRPPAPSGTQVHQQKGPPLPRPRVQPKPPHGAAENSLSPSSNEMWHEGLEEASRLYFGERNVKGMFEVLEPLHAMMERGPQTLKETSFNQAYGRDLMEAQEWCRKYMKSGNVKDLTQAWDLYYHVFRRISKQ
notes: whole, on cells
- binding result [2]: no binding

- binding result [3]: binds
B3: CDK4-PB1 (other, not shown: small tags and cut ends)
chain: ATSRYEPVAEIGVGAYGTVYKARDPHSGHFVALKSVRVPNGGGGGGGLPISTVREVALLRRLEAFEHPNVVRLMDVCATSRTDREIKVTLVFEHVDQDLRTYLDKAPPPGLPAETIKDLMRQFLRGLDFLHANCIVHRDLKPENILVTSGGTVKLADFGLARIYSYQMALTPVVVTLWYRAPEVLLQSTYATPVDMWSVGCIFAEMFRRKPLFCGNSEADQLGKIFDLIGLPPEDDWPRDVSLPRGAFPPRGPRPVQSVVPEMEESGAQLLLEMLTFNPHKRISAFRALQHSYLHKDEGNPEMASLTVKAYLLGKEDAAREIRRFSFCCSPEPEAEAEAAAGPGPCERLLSRVAALFPALRPGGFQAHYRDEDGDLVAFSSDEELTMAMSYVKDDIFRIYIKEK
notes: whole, on cells
